For 4 molecules, Kd results are on record in publication PMC4389572.

Numbering of substitutions follows the chain as printed.

Broadly, the Kd is the constant that tells how readily two partners part at equilibrium.

The chains are these.
B1: SH3_(lin-wt), linear N-terminal SH3 domain of c-Crk (residues 134-190 with an additional Gly191) (domain or fragment)
chain: AEYVRALFDFNGNDEEDLPFKKGDILRIRDKPEEQWWNAEDSEGKRGMIPVPYVEKYG
B2: SH3_(circ-GΔ), backbone-cyclized N-terminal SH3 domain of c-Crk lacking Ala134 and Glu135 (Cys-Gly + residues 136-191) (domain or fragment)
chain: B1 chain with A1C, E2G
modifications: backbone cyclized: cyclo-[...], peptide bond between the N-terminal Cys and the C-terminal Gly191
B3: SH3_(circ-wt), backbone-cyclized N-terminal SH3 domain of c-Crk (Cys-Gly + residues 134-191) (domain or fragment)
chain: CGAEYVRALFDFNGNDEEDLPFKKGDILRIRDKPEEQWWNAEDSEGKRGMIPVPYVEKYG
modifications: backbone cyclized: cyclo-[...], peptide bond between the N-terminal Cys and the C-terminal Gly191
B4: SH3_(circ-Δ), backbone-cyclized N-terminal SH3 domain of c-Crk lacking Ala134 and Glu135 (Cys + residues 136-191) (domain or fragment)
chain: CYVRALFDFNGNDEEDLPFKKGDILRIRDKPEEQWWNAEDSEGKRGMIPVPYVEKYG
modifications: backbone cyclized: cyclo-[...], peptide bond between the N-terminal Cys and the C-terminal Gly191

This test has as its target C3G-based poly-Pro peptide ligand. In words: other fluorescence titration; fluorescence-based titration assay as described in Camarero et al., 2001b; conditions not given here.
B1: the equilibrium dissociation constant (Kd) was found to be 870 nM.

In turn, B2 registered a dissociation constant (Kd) of 470 nM.

B3: the Kd was determined as 890 nM.

B4 gave a Kd of 430 nM.
